Data: publication PMC6755732, “Structural, Biochemical, and In Vivo Characterization of MtrR-Mediated Resistance to Innate Antimicrobials by the Human Pathogen Neisseria gonorrhoeae” (Journal of Bacteriology, 2019)

Biological target: the molecule itself
Test: crystal structure; hanging-drop vapor diffusion; 1.6 M Na+/K+ phosphate, 0.2 M LiSO4, 0.1 M CAPS pH 10.5; space group C2; two MtrR dimers in the asymmetric unit

B1: MtrR (natural protein)
chain: MRKTKTEALKTKEHLMLAALETFYRKGIARTSLNEIAQAAGVTRGALYWHFKNKEDLFDALFQRICDDIENCIAQDAADAEGGSWTVFRHTLLHFFERLQSNDIHYKFHNILFLKCEHTEQNAAVIAIARKHQAIWREKITAVLTEAVENQDLADDLDKETAVIFIKSTLDGLIWRWFSSGESFDLGKTAPRIIGIMMDNLENHPCLRRK
notes: also called native MtrR; WT MtrR
binding result: binds
